For the series, the system named is MS2 coat protein. Description: apparent KD of MS2 coat protein; designed switch direction (-1 OFF switch, 1 ON switch): -1; higher = weaker reporter binding. In outline:
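Stalled E. coli RNA polymerase transcribed designed RNA switches on Illumina chips, which were then titrated with SNAP-549-labelled MS2 coat protein, doubling from 0.7 or 1.5 nM to 3 µM. Steps lasted from 0.8–1.5 h at the lowest concentration to 10–20 min at the highest. The apparent KD is each design's median over clusters of curve-fitted normalised fluorescence.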

The mark [1] stands for this setting: Eterna round: R95, input ligand: FMN 200 uM.
Setting [2] is: Eterna round: R95, input ligand: microRNA oligo, concentration not stated.
Where [3] appears, read: Eterna round: R95, input ligand: none.
[4] abbreviates: input ligand: microRNA oligo, concentration not stated.

“AAGGAGUUAGGAUAUCGAAGAAGAAGAAGAAGAAGAAGAAGCGAGAAGGAACAUGAGGAUCACCCAUGUAAGAA [JR_Exclu4_Sub028] (puzzle: Exclusion 4)”: the “apparent KD of MS2 coat protein” value under setting [1] is 32.5 nM, the “apparent KD of MS2 coat protein” value under setting [2] stood at 50.5 nM and the “apparent KD of MS2 coat protein” value under setting [3] is 41.5 nM.

“AAGGAUAGAGGAUAUACAUAGAUACAGAUUCAUGUAGUCCUACAUGAGGAUCACCCAUGUAGAAGGCUAUCCUA [Fiskers Ex 2 - 12] (Eterna round: R96, puzzle: Exclusion 2)”: the “apparent KD of MS2 coat protein” value is, setting by setting: (input ligand: FMN 200 uM) 103 nM; under setting [4], 14.3 nM; (input ligand: none) 18.7 nM.

As for “AAGGAUAGAGGAUAUACAUAGAUACAGAUUCAUGUAGUCCUACAUGAGGAUCACCCAUGUAGAAGGCUAUCCUA [Fiskers Ex 2 - 12] (puzzle: Exclusion 2)”, under setting [2], the “apparent KD of MS2 coat protein” value came to 15.7 nM.

Consider “AAGGCGUCAGGAUAUCCAAUAUAUGACAUGAGGAUCACCCAUGUUUCCACUCGUACCUCCGGAGAAGGGACAAAUA [Ex5 #87] (Eterna round: R97, puzzle: Exclusion 5)”, for which the “apparent KD of MS2 coat protein” value reads like this: (input ligand: FMN 200 uM) 35.6 nM; (input ligand: none) 38 nM.

As for “AAGGGUGCCCUUAGAAAGACAUGAGGAUCACCCAUGUAGACUGAGGAUAUCCACUCCUAAGGACCGGAGAAGGCAGUGUAAUGC [Qubion] (Eterna round: R96, puzzle: Exclusion NG 3)”, the “apparent KD of MS2 coat protein” value runs as follows: (input ligand: FMN 200 uM) 16.9 nM; under setting [4], 13.8 nM; (input ligand: none) 18.2 nM.

As to “AAGGGUGCCUUUAGAACGACAUGAGGAUCACCCAUGUAGACUGAGGAUAUCUACUCCUAAGGACCGGAGAAGGCAGUGUAAUGC [Ex NG3 #63] (Eterna round: R96, puzzle: Exclusion NG 3)”, the “apparent KD of MS2 coat protein” value was determined as 72.1 nM (input ligand: FMN 200 uM), 41.4 nM under setting [4] and 58.9 nM (input ligand: none).

As to “AAGGUACGAGGAUAUACAUAGAUACAGACACAUGUGCAUGUACAUGAGGAUCACCCAUGUAGAAGGCGUAUAUA [AJ 18] (Eterna round: R96, puzzle: Exclusion 2)”, the “apparent KD of MS2 coat protein” value turned out to be 248 nM (input ligand: FMN 200 uM), 50.2 nM under setting [4] and 51.8 nM (input ligand: none).

As for “AAGUAACAUGAGGAUCACCCAUGUUAGGAUAUCUCGGCCACAGGAACGCUGUAAAGCCAGAGAAGGAGCGGGUG [Mabi] (Eterna round: R97, puzzle: Exclusion 1)”, the “apparent KD of MS2 coat protein” value runs as follows: (input ligand: FMN 200 uM) 156 nM; (input ligand: none) 127 nM.

Turning to “AAGUACCGUCACGAAAGUGAUGGUACAACAAGCAAAUGUACAUGAGGAUCACCCAUGUCCUCAAUUGCUCGUCUUAU [Sensor 3 - 57] (puzzle: Sensor v3, turn-off variant 2)”, the “apparent KD of MS2 coat protein” value was determined as 88.2 nM under setting [1], 176 nM under setting [2] and 92.8 nM under setting [3].

As for “AAGUACCGUCACGAUAGUGAUGGUACAACAAGCAGUGAAACAUGAGGAUCACCCAUGUCCUCGAUUGCUCGUCUUAU [Sensor 3 - 80] (puzzle: Sensor v3, turn-off variant 2)”, the “apparent KD of MS2 coat protein” value is, setting by setting: under setting [1], 67.7 nM; under setting [2], 142 nM; under setting [3], 66.3 nM.

On to “AAGUACUACAAGCUUCGGGACAUGAGGAUCACCCAUGUUCGUCUUAUUGAUCUAGGUACGCUGACGUACCUAGAUCU [Mat - Sensor v3 - turn-off var 1 - JL Mod - D11] (puzzle: Sensor v3, turn-off variant 1)”, for which the “apparent KD of MS2 coat protein” value by setting is: under setting [1], 14.1 nM; under setting [2], 39.2 nM; under setting [3], 14.2 nM.

For the sequence “AAGUAGGCAGGAUAUACAUGAGGAUCACCCAUGUGCCUAUACAAGGUAAUCUUGGGAGGUAGAAGGGCCUACAA [ChP 13.04.2015 #3] (puzzle: Exclusion 3)”, the “apparent KD of MS2 coat protein” value under setting [2] stood at 33 nM.

On to “AAGUCGAGCGUGAGGAUAUCGUUCGAACGACCGAACGAGAAGGCACAUGAGGAUCACCCAUGUGAUUCAGUUCA [Brourd's EX4 #46] (Eterna round: R97, puzzle: Brourd's mod of Exclusion 4)”, for which the “apparent KD of MS2 coat protein” value runs as follows: (input ligand: FMN 200 uM) 39.8 nM; (input ligand: none) 17.8 nM.

With “AAUAAACAUGAGGAUCACCCAUGUGAGGAUAUGCAAAUAAAUAAAUAAAUAAAUAAUAGUAGAAGGCGCAAUAA [Excls1-I] (puzzle: Exclusion 1)”, the “apparent KD of MS2 coat protein” value amounted to 34 nM under setting [1], 52.6 nM under setting [2] and 63 nM under setting [3].

As to “AAUAAAGGAGGAUAUACAUGAGGAUCACCCAUGUGAAUAAAAUAAAUAAAAUGAUAAAGUAGAAGGCCUAAUAA [JMF's solution 3] (puzzle: Exclusion 3)”, the “apparent KD of MS2 coat protein” value by setting is: under setting [1], 33.5 nM; under setting [2], 33.3 nM; under setting [3], 49.7 nM.

On to “AAUAACAAUGUGAGGAUAUCUAGAGCCUCGGCUCUAGAGAAGGCACAUGAGGAUCACCCAUGUCUCAAUAACAA [BmEx4/2-E7] (Eterna round: R97, puzzle: Brourd's mod of Exclusion 4)”, for which the “apparent KD of MS2 coat protein” value is, setting by setting: (input ligand: FMN 200 uM) 502 nM; (input ligand: none) 52.7 nM.

Take “AAUAACAGAGGAUAUACUAUUUUAUGUAUUUAUUAUUUUAAACAUGAGGAUCACCCAUGUAGAAGGCUGAAUAA [JMF 11] (puzzle: Exclusion 2)”: the “apparent KD of MS2 coat protein” value under setting [2] amounted to 19.8 nM.

Take “AAUAACAGAGGAUAUACUGUUUUAUGUGUUUGUUAUUUUAAACAUGAGGAUCACCCAUGUAGAAGGCUGAGUAA [JMF 30] (puzzle: Exclusion 2)”: the “apparent KD of MS2 coat protein” value under setting [2] was determined as 25 nM.

For “AAUAACAGAGGAUAUGCGAAUAAAUAAAACUUUUUUUUUUAACAUGAGGAUCACCCAUGUAGAAGGCUGAUAUU [Ex2 #21] (Eterna round: R97, puzzle: Exclusion 2)”, the “apparent KD of MS2 coat protein” value runs as follows: (input ligand: FMN 200 uM) 35.6 nM; (input ligand: none) 37 nM.

For “AAUAAGUUAGGAUAUACAUGAGGAUCACCCAUGUCCCACCCGUUACCUAUGACCAUAUGUAGAAGGAGCAAUAA [Exy#2] (Eterna round: R97, puzzle: Exclusion 3)”, the “apparent KD of MS2 coat protein” value is, setting by setting: (input ligand: FMN 200 uM) 62.1 nM; (input ligand: none) 32.7 nM.

For the sequence “AAUAAUAAGGAGGAUAUCCUAACCGAAAGGUUAGGAGAAGGCCUAACAUGAGGAUCACCCAUGUUCCUCAAUAA [Mat - Exclusion 6 - Eli Mod - D57] (puzzle: Exclusion 6)”, the “apparent KD of MS2 coat protein” value was 318 nM under setting [1], 236 nM under setting [2] and 118 nM under setting [3].

As for “AAUAAUCGAGGAUAUACUAAAAUAUGAAUAAAAUAAAUAAAACAUGAGGAUCACCCAUGUAGAAGGCGAAAUAA [JMF's Not so obvious solution 1] (puzzle: Exclusion 2)”, the “apparent KD of MS2 coat protein” value is, setting by setting: under setting [1], 20.8 nM; under setting [2], 24.1 nM; under setting [3], 29.5 nM.

As for “AAUAAUGAUAAGGAUAUUACUAGCGAUAGCUAGUGAGAAGGUAUCACAUGAGGAUCACCCAUGUGUUCCAAUAA [Ex6/6-B4] (Eterna round: R97, puzzle: Exclusion 6)”, the “apparent KD of MS2 coat protein” value is, setting by setting: (input ligand: FMN 200 uM) 70.1 nM; (input ligand: none) 17.3 nM.

As for “AAUAAUGGAGGAUAUACAUGAGGAUCACCCAUGUGAAUAAAAUAAAUAAAAUGAUAAAGUAGAAGGCCAAAUAA [JMF's solution 2] (puzzle: Exclusion 3)”, the “apparent KD of MS2 coat protein” value was 42.7 nM under setting [1], 39.9 nM under setting [2] and 53.6 nM under setting [3].

(Values after the supplement of paper PMC9170038.)
